Results from the RNAGym collection of RNA variant scans (doi:10.7554/elife.80360).

B1: Twister Ribozyme (parent)
chain: AACACUGCCAAUGCCGGUCCCAAGCCCGGAUAAAAGUGGAGGGGGCGG

Variants of: B1
Assay: self-cleavage, relative activity (ratio to wild type); higher = more cleavage; co-transcriptional

Variant | self-cleavage
U31C G38C | 0.842
G36A G48U | 0.809
G36A G48C | 0.99
A34C G39A | 0.155
A34C G39C | 0.0839
A35C G43C | 0.206
A35C G43A | 0.235
A35C G47C | 0.574
A33U G45U | 0.843
A33U G45A | 0.884
A34C G36C | 0.104
A34C G36A | 0.0949
A34C G36U | 0.084
A35G C46G | 0.868
A35G C46U | 0.854
U31G U37A | 0.818
U31G U37C | 0.634
A35U G36U | 0.472
A33U G44U | 0.897
A33G G44C | 0.752
A33G G44U | 0.86
A34C G48A | 0.187
A32G G44A | 0.929
A32G G44C | 0.907

Variant | self-cleavage
U31C G48U | 1.11
A32G G45A | 0.921
A32G G45U | 0.668
A32C A34C | 0.329
A35C G39U | 0.144
A33C A34C | 0.383
A33C A34G | 0.82
A32G G36A | 0.618
A34C C46A | 0.142
A32G G42C | 0.38
A32G G42A | 0.319
A32G G42U | 0.357
A35C G41U | 0.709
A35C G41C | 0.245
A34G G38C | 0.632
A34G G38A | 0.629
A32C C46G | 1.03
A32C C46A | 0.837
A34C A35C | 0.694
A33U G48U | 0.931
U31G G41A | 0.574
A33G A35C | 0.858
A34C G38U | 0.138
A34U G38A | 0.654

Variant | self-cleavage
A34U G38C | 0.638
A32G C46A | 0.753
A32G C46G | 0.854
A32G C46U | 0.933
A35U G44A | 0.843
U31C A33C | 0.925
A33U G41C | 0.18
A33U G41A | 0.472
A33U G41U | 0.489
U31G G39U | 0.203
A34C A40C | 0.122
A34C A40U | 0.0943
A33C G44U | 0.97
A32G A40G | 0.147
A32C G43C | 0.153
A32C G43A | 0.242
G36A U37C | 0.156
A34C G44U | 0.165
A34C G44A | 0.385
A34C G44C | 0.156
A35U G39C | 0.104
A34U A35G | 0.191
A34U C46A | 0.76
A32G G47C | 0.473

Variant | self-cleavage
A35G G41C | 0.143
A35G G41U | 0.283
A35C U37A | 0.702
A35C U37C | 0.592
G36A G47U | 0.76
G36A G47A | 0.557
G36A C46G | 0.7
G36A C46U | 0.766
A34G G48A | 0.645
A34G G48C | 0.791
A34G G42U | 0.131
U31G G45C | 0.653
U31G G45U | 0.883
A32U A35C | 1.01
A32U A35G | 0.746
U31C G39C | 0.111
U31C G39A | 0.456
A33G G43A | 0.268
A33G G43C | 0.144
A32U A34C | 0.231
A35G G38C | 0.632
G36C G38A | 0.459
A32C G44A | 0.881
A32C G44U | 0.936

Variant | self-cleavage
A32C G44C | 1.03
A32U G38A | 0.85
A32U G38U | 0.94
G36A G44C | 0.762
G36A G44U | 0.791
G36A G44A | 0.8
A34U G39C | 0.138
A35U U37C | 0.633
A35U U37G | 0.69
A34U G42A | 0.169
A34U G42C | 0.217
A34U G42U | 0.145
A33G G47U | 0.927
A33G G47A | 0.75
A32U A40U | 0.193
A35G A40C | 0.142
A33U A40G | 0.154
A34U G36C | 0.132
A34U G36U | 0.124
A33G U37C | 0.532
A33G U37A | 0.814
U31G G48A | 0.992
U31G G48U | 0.938
A32C A33G | 0.945

Variant | self-cleavage
A33G G45A | 0.803
A33G G45U | 0.782
A35G G47A | 0.706
U31C A35G | 0.682
U31C A35C | 1.03
A35U | 0.969
A35G | 0.864
A35C | 0.962
U31G A32G | 0.836
U31G A32C | 0.946
U31G A35U | 1.01
A33C G36U | 0.122
A33C G36C | 0.101
A32G G43C | 0.0899
A34U G45C | 0.295
A34U G45A | 0.815
U31C G36C | 0.635
U31C G36U | 0.321
A33U G47C | 0.439
A33C C46A | 0.934
A33C C46U | 0.961
A33C C46G | 0.751
U31C G45A | 0.965
G36C A40U | 0.149

Variant | self-cleavage
A33G A40G | 0.195
A33G A40C | 0.17
A33G G38U | 0.861
G36A G45C | 0.256
U31C A32U | 1.02
A35G G44A | 0.808
A35G G44C | 0.821
A33C G41A | 0.309
A33C G41C | 0.151
A34G G45A | 0.721
A34G G45U | 0.553
A35G G39C | 0.178
A35G G45U | 0.659
A35G G45A | 0.889
A34G U37G | 0.314
A34G U37C | 0.0836
A35U G45C | 0.723
A35U G45U | 0.812
A35C G38C | 0.921
U31C G47A | 0.926
A34G G39A | 0.133
A32G G38A | 0.846
A32G G38C | 0.892
